Where a chain is given by its changes, count along the chain named.
Molecular target: mitogen-activated protein kinase p38α (residues 2-349) (human, UniProt Q16539 2-349)
Assay: ITC

mitogen-activated protein kinase p38α (residues 2-349), sequence (Q16539 2-349): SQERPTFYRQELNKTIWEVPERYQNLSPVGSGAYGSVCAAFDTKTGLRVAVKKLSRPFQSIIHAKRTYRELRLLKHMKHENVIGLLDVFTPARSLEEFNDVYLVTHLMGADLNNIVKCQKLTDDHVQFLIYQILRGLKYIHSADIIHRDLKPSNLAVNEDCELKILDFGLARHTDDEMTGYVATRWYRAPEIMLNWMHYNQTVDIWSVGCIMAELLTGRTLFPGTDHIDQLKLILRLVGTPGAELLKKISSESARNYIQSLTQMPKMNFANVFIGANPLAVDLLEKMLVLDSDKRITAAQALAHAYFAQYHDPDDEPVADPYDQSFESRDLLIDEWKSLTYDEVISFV

B1: full-length MKK6 (residues 1-334) (enzyme, UniProt P52564 1-334, looked up)
chain: MSQSKGKKRNPGLKIPKEAFEQPQTSSTPPRDLDSKACISIGNQNFEVKADDLEPIMELGRGAYGVVEKMRHVPSGQIMAVKRIRATVNSQEQKRLLMDLDISMRTVDCPFTVTFYGALFREGDVWICMELMDTSLDKFYKQVIDKGQTIPEDILGKIAVSIVKALEHLHSKLSVIHRDVKPSNVLINALGQVKMCDFGISGYLVDSVAKTIDAGCKPYMAPERINPELNQKGYSVKSDIWSLGITMIELAILRFPYDSWGTPFQQLKQVVEEPSPQLPADKFSAEFVDFTSQCLKKNSKERPTYPELMQHPFFTLHESKGTDVASFVKLILGD
A Kd of 2 ± 0.1 µM was found for B1 in this work.

B2: constitutively active MKK6 variant MKK6_(1-334)^S207ET211E (enzyme, UniProt P52564 1-334, looked up)
chain: B1 chain with S207E, T211E
A Kd of 3.5 ± 1.4 µM was found for B2 in this work.

B3: MKK6KIM peptide (peptide)
peptide: SQSKGKKRNPGLKIPKEAF
A Kd of 7 ± 2 µM was found for B3 in this work.

Source: article doi:10.1101/2020.11.26.395038 (bioRxiv, 2020)
